From patent US20060204974A1

Target: rat angiotensin type 1a receptor (AT1aR) (rat) (UniProt P25095)
Assay: cell-based or functional assay

Sequence of UniProt P25095 (P25095 whole entry): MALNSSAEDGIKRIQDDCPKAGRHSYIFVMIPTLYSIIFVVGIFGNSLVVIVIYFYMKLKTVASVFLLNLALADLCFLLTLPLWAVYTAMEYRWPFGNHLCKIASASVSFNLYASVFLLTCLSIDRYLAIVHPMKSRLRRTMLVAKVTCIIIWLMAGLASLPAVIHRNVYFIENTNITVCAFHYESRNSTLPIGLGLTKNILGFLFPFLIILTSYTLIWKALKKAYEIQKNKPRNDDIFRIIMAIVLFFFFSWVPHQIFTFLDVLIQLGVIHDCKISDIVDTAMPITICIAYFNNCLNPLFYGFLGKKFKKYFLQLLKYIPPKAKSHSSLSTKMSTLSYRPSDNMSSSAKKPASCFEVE

For “Angiotensin II (from UniProt P01019 25-476) (peptide)”, the Ang II (100 nM) stimulated inositol phosphate production, Ang II-basal (cpm), CHO cells stably expressing E1,2,3 was 260 cpm, the Ang II (100 nM) stimulated inositol phosphate production, Ang II-basal (cpm), CHO cells stably expressing E1,3 was 1320 cpm and the Ang II-induced IP production (cpm), 100 nM Ang II, CHO clones stably expressing QM was 1640 cpm. For the same substance, the Ang II-induced IP production (cpm), 100 nM Ang II, CHO clones stably expressing WT was 322 cpm, the angiotensin II/basal inositol phosphate accumulation, 100 nM angiotensin II for 20 min, A10 cells transiently transfected with E2 plasmid (ratio (angiotensin II/basal)) was 1.35 and the angiotensin II/basal inositol phosphate accumulation, 100 nM angiotensin II for 20 min, A10 cells transiently transfected with ΔE2 plasmid (ratio (angiotensin II/basal)) was 1.8.
